The text below walks through data of patent US8658372.

This experiment addresses T1, botulinum toxoid B, P10844.
T1 chain: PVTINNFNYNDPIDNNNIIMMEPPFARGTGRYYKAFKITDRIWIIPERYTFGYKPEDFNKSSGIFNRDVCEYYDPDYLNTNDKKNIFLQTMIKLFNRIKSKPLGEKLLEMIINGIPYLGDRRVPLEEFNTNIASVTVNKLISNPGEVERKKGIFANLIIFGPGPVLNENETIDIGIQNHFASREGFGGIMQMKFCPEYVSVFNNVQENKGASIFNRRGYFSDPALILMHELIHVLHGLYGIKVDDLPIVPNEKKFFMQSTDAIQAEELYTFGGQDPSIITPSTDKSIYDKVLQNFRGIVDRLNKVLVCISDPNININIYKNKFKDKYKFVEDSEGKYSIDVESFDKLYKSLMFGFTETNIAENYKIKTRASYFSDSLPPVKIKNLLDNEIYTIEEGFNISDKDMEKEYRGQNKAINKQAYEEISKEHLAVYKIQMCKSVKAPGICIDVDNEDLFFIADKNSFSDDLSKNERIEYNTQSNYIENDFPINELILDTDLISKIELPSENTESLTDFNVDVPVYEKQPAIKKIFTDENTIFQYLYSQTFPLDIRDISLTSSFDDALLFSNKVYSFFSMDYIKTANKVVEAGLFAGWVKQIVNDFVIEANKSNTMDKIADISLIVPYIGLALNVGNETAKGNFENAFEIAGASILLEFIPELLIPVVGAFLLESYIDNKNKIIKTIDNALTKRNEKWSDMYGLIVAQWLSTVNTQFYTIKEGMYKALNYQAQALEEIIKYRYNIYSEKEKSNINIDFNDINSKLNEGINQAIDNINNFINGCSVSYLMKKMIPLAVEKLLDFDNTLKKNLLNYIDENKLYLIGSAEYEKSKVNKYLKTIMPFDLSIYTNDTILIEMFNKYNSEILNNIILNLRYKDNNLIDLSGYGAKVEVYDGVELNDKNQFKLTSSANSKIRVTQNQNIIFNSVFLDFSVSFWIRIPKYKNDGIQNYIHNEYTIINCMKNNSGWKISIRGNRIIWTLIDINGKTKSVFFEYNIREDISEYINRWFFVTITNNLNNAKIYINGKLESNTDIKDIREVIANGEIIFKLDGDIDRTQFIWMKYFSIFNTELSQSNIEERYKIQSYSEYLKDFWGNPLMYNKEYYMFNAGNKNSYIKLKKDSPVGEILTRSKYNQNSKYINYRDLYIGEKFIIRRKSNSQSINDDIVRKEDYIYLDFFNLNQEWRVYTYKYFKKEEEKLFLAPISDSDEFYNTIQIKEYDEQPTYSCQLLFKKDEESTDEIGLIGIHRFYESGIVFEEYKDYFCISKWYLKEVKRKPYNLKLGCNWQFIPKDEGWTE

In the case of GIGAVLKVLTTGLPALISWIKRKRQQ (modifications not checked) [Melittin], the limit of detection was less than 5 ng/mL.
